{"source": "patent US5616475", "biological_target": "T1, TRC-1 (p21 SNF-1/JunB heteromultimer), SLB-I nuclear extract (Homo sapiens) (UniProt Q9NR55+P17275)", "T1 sequence 1": "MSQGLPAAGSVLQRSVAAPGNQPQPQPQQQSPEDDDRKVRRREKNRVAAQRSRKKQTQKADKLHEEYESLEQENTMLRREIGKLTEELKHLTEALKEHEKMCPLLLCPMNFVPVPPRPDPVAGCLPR", "T1 sequence 2": "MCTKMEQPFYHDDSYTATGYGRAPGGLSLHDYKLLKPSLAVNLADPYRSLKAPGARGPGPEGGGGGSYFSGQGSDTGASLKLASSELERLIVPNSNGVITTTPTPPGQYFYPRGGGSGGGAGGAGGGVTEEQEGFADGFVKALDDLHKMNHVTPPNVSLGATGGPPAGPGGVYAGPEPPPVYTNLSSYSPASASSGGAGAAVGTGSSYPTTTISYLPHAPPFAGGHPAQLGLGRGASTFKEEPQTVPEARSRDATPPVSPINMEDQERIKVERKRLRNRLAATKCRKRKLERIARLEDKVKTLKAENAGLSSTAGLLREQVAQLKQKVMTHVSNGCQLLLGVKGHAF", "test": "competition", "conditions": "EMSA, site2 probe", "data": [{"substance": "HTLV-1 LTR 21-bp repeat site1 (s1)", "values": [{"measurement": "binding signal (fold excess for 55% competition)", "result": 100}]}, {"substance": "HTLV-1 LTR 21-bp repeat site2 (s2)", "values": [{"measurement": "binding signal (% competition at 12.5-fold excess)", "setting": "on ice", "result": 55}]}, {"substance": "HTLV-1 LTR 21-bp repeat site3 (s3)", "values": [{"measurement": "binding signal (fold excess for 55% competition)", "setting": "nearly 50-fold", "result": 50}]}]}
